What was measured:
Experiment in all cases: filter
[1] = target: T1, human neutrophil elastase (hNE) (Homo sapiens) (UniProt P08246); conditions: 5-BrdU replaces T
T1 sequence: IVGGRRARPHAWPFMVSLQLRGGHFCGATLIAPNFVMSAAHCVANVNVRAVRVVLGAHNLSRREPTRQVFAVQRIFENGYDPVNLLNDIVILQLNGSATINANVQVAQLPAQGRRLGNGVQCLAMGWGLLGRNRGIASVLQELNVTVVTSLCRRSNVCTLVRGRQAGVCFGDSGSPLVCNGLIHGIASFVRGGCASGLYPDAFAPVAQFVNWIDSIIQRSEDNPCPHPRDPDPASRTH

[2] = target: Plasmin (UniProt P00747+P00747); conditions: 5-BrdU replaces T; apparent photocrosslink KD; plateau 50%
[3] = target: T2, Endostatin (UniProt P39060); conditions: 5-BrdU replaces T; apparent photocrosslink KD; plateau 75%
T2 sequence: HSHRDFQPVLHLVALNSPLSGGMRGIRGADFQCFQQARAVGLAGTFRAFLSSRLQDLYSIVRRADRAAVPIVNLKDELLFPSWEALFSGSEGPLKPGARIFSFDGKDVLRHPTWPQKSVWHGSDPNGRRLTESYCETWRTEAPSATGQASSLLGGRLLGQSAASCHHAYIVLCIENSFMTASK

[4] = target: T3, UDP-glucuronosyl transferase (UGT) 1A1 (UniProt P22309); conditions: 5-BrdU replaces T; apparent photocrosslink KD; plateau 70%
T3 sequence: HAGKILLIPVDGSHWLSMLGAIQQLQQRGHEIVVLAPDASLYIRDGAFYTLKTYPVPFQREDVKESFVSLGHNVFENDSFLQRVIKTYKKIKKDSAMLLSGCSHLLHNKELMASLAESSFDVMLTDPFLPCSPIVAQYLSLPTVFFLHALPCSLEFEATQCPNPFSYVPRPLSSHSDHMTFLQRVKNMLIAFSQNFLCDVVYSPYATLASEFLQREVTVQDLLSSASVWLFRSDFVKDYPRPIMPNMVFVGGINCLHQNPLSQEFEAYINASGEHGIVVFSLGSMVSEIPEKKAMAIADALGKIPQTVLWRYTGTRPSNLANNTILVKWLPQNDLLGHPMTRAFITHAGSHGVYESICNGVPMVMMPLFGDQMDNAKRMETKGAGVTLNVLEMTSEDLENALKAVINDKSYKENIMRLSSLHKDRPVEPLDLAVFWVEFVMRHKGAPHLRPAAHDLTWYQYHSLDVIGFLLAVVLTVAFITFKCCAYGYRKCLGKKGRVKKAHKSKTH

[5] = target: T4, L-Selectin (Homo sapiens) (UniProt P14151); conditions: 5-BrdU replaces T; apparent photocrosslink KD; plateau 25%
T4 sequence: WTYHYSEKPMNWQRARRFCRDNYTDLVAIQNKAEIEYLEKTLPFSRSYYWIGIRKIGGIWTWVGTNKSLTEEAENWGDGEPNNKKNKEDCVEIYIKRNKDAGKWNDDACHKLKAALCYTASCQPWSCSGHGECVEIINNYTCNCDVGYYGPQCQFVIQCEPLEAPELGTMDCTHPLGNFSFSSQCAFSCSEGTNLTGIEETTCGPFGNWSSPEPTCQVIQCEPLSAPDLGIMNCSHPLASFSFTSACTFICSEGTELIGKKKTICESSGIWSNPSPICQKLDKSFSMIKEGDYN

[6] = target: Factor H (UniProt P08603); conditions: 5-BrdU replaces T; apparent photocrosslink KD; plateau 65%; abstract prints Factor II
[7] = test system: Collagen; conditions: 5-BrdU replaces T; apparent photocrosslink KD; plateau 25%
[8] = target: T5, Coagulation Factor XII (UniProt P00748); conditions: 5-BrdU replaces T; apparent photocrosslink KD; plateau 45%
T5 sequence: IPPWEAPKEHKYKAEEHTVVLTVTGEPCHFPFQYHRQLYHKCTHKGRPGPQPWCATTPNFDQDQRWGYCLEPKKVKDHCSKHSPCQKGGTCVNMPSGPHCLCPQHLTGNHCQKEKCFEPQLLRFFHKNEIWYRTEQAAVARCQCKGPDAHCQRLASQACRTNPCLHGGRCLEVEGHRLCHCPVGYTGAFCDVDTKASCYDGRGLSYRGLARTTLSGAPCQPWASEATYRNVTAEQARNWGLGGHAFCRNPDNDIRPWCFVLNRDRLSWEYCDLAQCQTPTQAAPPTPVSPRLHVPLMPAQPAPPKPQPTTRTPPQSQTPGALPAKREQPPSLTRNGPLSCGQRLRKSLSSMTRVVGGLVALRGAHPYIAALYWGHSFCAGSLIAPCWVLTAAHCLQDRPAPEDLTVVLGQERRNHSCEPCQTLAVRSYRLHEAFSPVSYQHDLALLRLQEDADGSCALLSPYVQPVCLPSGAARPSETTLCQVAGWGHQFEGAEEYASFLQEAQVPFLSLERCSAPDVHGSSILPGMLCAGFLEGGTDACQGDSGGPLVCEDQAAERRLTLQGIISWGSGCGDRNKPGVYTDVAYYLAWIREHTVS

[9] = target: Hepatocyte Growth Factor (HGF) (UniProt P14210+P14210); conditions: 5-BrdU replaces T; apparent photocrosslink KD; plateau 73%
[10] = target: CTLA-4 Fc (UniProt P16410); conditions: 5-BrdU replaces T; apparent photocrosslink KD; plateau 7%
[11] = target: T6, Kininogen (UniProt P01042); conditions: 5-BrdU replaces T; apparent photocrosslink KD; plateau 64%
T6 sequence: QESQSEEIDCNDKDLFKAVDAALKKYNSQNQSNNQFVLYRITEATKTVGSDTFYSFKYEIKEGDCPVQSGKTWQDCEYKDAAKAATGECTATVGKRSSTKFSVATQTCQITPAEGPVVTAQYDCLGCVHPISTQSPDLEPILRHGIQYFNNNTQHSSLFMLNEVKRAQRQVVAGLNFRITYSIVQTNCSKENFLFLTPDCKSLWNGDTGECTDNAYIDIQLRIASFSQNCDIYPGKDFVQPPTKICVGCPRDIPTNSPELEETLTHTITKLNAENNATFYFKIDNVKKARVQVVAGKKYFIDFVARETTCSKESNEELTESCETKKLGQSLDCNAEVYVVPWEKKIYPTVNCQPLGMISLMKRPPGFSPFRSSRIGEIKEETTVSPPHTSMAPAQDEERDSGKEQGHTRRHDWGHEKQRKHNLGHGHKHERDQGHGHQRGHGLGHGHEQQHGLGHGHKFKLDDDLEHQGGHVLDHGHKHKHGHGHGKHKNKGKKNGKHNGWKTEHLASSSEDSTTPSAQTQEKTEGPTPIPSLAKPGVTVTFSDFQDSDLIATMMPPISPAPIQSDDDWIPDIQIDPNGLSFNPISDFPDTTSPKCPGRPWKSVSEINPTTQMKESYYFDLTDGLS

[12] = target: alpha-thrombin (Homo sapiens) (UniProt P00734+P00734); conditions: 5-BrdU replaces T, apparent photocrosslink KD
[13] = target: IGFBP-3 (UniProt P17936); conditions: 5-BrdU replaces T; apparent photocrosslink KD; plateau 52%
[14] = target: Thrombopoietin (Tpo) (UniProt P40225); conditions: 5-BrdU replaces T; apparent photocrosslink KD; plateau 50%
[15] = target: Transforming Growth Factor beta1 (TGF-beta1) (UniProt P01137); conditions: 5-BrdU replaces T, apparent photocrosslink KD
[16] = target: Serum Amyloid P (UniProt P02743); conditions: 5-BrdU replaces T; apparent photocrosslink KD; plateau 55%
[17] = target: Coagulation Factor IX (UniProt P00740); conditions: 5-BrdU replaces T; apparent photocrosslink KD; plateau 75%
[18] = target: T7, Interleukin-7 (UniProt P13232); conditions: 5-BrdU replaces T; apparent photocrosslink KD; plateau 50%
T7 sequence: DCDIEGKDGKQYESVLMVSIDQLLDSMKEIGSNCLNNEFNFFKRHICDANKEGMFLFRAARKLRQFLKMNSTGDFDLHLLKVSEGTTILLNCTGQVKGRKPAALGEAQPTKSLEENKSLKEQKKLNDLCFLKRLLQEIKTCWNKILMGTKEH

Sequence of Transforming Growth Factor beta1 (TGF-beta1) (P01137 279-390): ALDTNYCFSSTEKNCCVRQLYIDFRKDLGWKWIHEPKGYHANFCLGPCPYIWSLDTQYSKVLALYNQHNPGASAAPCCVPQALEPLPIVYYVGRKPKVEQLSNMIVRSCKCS
Sequence of Plasmin (P00747 97-580, chain 1 of 2): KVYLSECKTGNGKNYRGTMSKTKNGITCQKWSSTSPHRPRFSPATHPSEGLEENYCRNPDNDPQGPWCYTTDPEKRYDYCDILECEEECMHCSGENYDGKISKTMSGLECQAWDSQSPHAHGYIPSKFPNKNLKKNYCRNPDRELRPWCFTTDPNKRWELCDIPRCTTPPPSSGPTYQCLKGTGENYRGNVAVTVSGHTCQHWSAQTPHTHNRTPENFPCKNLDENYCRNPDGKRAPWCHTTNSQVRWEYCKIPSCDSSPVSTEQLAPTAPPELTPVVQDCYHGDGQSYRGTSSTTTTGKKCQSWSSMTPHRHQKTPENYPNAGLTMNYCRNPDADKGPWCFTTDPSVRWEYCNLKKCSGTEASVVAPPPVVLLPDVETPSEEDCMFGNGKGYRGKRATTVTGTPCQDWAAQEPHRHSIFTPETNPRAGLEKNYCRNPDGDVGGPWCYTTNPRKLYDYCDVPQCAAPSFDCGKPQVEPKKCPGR
Sequence of Plasmin (P00747 581-810, chain 2 of 2): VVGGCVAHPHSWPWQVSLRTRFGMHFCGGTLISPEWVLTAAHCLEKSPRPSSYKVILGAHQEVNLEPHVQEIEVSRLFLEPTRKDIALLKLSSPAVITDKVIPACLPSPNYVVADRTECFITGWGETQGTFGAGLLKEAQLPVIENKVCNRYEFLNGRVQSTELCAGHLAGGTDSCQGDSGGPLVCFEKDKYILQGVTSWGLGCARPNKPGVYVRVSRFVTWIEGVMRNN
Sequence of Serum Amyloid P (P02743 20-223): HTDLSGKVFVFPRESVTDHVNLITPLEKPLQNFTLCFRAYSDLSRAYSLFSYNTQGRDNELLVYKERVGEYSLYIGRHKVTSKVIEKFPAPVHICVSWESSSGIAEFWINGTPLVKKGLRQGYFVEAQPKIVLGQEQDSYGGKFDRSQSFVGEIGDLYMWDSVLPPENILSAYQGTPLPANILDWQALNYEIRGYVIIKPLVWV
Sequence of Thrombopoietin (Tpo) (P40225 22-353): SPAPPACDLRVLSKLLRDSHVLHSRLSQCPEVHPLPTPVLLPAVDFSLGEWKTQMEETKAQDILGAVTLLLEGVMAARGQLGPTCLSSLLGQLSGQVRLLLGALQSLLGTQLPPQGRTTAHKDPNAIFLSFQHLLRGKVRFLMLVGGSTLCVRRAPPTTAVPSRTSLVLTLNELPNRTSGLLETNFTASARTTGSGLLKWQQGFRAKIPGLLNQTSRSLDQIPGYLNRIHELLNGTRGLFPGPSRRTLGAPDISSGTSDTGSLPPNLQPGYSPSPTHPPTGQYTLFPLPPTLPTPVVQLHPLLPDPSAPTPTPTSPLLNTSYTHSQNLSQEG
Sequence of Hepatocyte Growth Factor (HGF) (P14210 32-494, chain 1 of 2): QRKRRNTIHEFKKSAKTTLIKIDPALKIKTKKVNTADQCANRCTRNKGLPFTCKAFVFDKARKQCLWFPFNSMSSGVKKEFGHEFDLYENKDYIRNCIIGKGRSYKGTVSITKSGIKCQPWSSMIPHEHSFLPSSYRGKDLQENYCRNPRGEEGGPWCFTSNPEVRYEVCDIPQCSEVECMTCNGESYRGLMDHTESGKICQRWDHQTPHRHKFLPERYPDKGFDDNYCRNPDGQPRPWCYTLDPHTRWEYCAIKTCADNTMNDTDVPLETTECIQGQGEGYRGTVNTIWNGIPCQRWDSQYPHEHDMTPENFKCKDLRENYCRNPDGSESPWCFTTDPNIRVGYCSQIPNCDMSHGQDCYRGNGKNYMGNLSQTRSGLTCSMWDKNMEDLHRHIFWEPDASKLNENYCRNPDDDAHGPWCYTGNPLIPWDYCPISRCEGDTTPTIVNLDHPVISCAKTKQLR
Sequence of Hepatocyte Growth Factor (HGF) (P14210 495-728, chain 2 of 2): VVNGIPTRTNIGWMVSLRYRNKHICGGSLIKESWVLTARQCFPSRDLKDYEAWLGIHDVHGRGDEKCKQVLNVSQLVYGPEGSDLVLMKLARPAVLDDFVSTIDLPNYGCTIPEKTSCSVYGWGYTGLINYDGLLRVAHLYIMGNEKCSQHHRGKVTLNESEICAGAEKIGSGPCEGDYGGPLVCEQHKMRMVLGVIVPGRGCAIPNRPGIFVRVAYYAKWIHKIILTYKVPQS
Sequence of CTLA-4 Fc (P16410 36-161): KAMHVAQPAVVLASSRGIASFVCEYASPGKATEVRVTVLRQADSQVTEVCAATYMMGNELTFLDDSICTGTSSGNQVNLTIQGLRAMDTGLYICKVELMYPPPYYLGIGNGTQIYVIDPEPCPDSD
Sequence of IGFBP-3 (P17936 28-291): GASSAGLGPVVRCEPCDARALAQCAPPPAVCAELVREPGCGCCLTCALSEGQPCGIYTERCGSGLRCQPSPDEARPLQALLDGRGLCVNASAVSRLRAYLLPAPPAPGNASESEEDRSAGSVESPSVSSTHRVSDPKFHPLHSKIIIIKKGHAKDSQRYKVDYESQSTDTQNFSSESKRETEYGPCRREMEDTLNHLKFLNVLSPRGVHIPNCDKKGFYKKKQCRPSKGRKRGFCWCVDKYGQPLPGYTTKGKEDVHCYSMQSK
Sequence of Factor H (P08603 19-1231): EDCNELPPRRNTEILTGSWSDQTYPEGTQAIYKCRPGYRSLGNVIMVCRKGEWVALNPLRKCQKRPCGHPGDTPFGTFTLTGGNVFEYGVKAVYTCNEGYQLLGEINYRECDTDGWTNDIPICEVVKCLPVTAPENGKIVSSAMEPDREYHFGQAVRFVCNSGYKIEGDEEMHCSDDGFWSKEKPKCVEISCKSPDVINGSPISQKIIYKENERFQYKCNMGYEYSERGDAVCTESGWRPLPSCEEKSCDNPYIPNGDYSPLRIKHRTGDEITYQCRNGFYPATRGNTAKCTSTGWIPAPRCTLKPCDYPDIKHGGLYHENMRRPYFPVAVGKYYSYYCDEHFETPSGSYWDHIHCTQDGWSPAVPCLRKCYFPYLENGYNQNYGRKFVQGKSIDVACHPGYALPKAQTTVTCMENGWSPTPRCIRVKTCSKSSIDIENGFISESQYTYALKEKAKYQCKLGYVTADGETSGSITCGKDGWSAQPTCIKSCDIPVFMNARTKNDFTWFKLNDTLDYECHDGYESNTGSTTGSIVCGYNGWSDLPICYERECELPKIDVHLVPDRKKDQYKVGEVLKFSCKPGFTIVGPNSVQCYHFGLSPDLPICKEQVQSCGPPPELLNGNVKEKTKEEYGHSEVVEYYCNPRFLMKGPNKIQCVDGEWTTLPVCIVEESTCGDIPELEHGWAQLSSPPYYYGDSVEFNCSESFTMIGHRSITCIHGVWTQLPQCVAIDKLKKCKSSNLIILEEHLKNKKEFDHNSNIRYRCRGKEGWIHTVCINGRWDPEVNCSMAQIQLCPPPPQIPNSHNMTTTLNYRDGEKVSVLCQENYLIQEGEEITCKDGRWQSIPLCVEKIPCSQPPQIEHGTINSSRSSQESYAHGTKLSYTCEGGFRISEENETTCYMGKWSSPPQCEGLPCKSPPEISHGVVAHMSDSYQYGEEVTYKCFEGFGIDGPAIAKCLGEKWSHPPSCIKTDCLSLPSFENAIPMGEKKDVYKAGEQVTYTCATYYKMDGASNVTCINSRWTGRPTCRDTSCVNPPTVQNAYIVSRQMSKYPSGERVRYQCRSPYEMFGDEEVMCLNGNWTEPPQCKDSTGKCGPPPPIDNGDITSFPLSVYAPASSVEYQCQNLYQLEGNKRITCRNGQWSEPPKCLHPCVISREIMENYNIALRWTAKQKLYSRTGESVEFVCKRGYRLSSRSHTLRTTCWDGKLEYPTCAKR

ATATATATGGGAGGACGATGCGGCAACCCACCACTCTATCTTTCCCATAACTGCAGACGACGAGCGGGAAAAAAAA [hNE pool 2 clone 43]
Kd ([1]; apparent photocrosslink KD, plateau 27%, rate 0.14): 61 nM

ATATATATGGGAGGACGATGCGGCAACCCTGACACCACGTTGTTTCTCCTTTTGGGGTAACCGCAGACGACGAGCGGGAAAAAAAA [Plasmin pool 050 clone 25]
Kd [2]: 78 nM

ATATATATGGGAGGACGATGCGGCACAATGAAGTCACTCTTGACGCTTGTATTCAGACGACGAGCGGGAAAAAAAA [Endostatin pool 92 clone 4]
Kd [3]: 2.7 nM

ATATATATGGGAGGACGATGCGGCACCTGATTTCTACCCTTTACTTTGTGTGGCAGACGACGAGCGGGAAAAAAAA [UGT 1A1 pool 319 clone 73]
Kd [4]: 22 nM

ATATATATGGGAGGACGATGCGGCCGGTTCACGTGCACCATCCGTGTGCTAGACAGACGACGAGCGGGAAAAAAAA [L-Selectin pool 048 clone 21]
Kd [5]: 7 nM

ATATATATGGGAGGACGATGCGGCCTCATAAAGTTACATCGGCAATTCTTCTCCAGACGACGAGCGGGAAAAAAAA [Factor H pool 94 clone 12]
Kd [6]: 14 nM

ATATATATGGGAGGACGATGCGGCTACTCCTCCTTAACCCGGGTCTTGTGGCCCAGACGACGAGCGGGAAAAAAAA [Collagen pool 100 clone 36]
Kd [7]: 0.75 nM

ATATATATGGGAGGACGATGCGGCTGCGTGACAGTTATACTGTTATTGGTCTTCAGACGACGAGCGGGAAAAAAAA [Factor XII pool 89 clone 51]
Kd [8]: 53 nM

ATATATATGGGAGGACGATGCGGGACGACTAGCCTAGTGCCCTTACGATCACCCAGACGACGAGCGGGAAAAAAAA [HGF pool 107 clone 23]
Kd [9]: 0.53 nM

ATATATATGGGAGGACGATGCGGGACGCTAATACTTCTGGAGTGGAACGGTTTCAGACGACGAGCGGGAAAAAAAA [CTLA-4 Fc pool 101 clone 60]
Kd [10]: 8 nM

ATATATATGGGAGGACGATGCGGGACGCTAGTACCCTGGCTGGCTTGGTTGGGCAGACGACGAGCGGGAAAAAAAA [Kininogen pool 046 clone 31]
Kd [11]: 7 nM

ATATATATGGGAGGACGATGCGGGAGGAGCTGATGGGTGGTGAGGTTGGCCAGACGACGAGCGGGAAAAAAAA [Thrombin pool 5 clone 51]
Kd ([12]; plateau 6%, rate 0.4): 0.04 nM

ATATATATGGGAGGACGATGCGGGCAAAGTGTTATTTCTTGATCTGTTTCACCCAGACGACGAGCGGGAAAAAAAA [IGFBP-3 pool 112 clone 65]
Kd [13]: 6 nM

ATATATATGGGAGGACGATGCGGGCACACCCAACCTTGCTTCTTCAATCTAATCTCCACTTTGCAGACGACGAGCGGGAAAAAAAA [Tpo pool 059 clone 34]
Kd [14]: 64 nM

ATATATATGGGAGGACGATGCGGGCACATCACTCTATCATTTGCTACGGTACCGGAGTGAGTCCAGACGACGAGCGGGAAAAAAAA [hNE pool 2 clone 18]
Kd ([1]; apparent KD from photocrosslinking 308 nm, plateau 37%, rate 0.72 J-1 cm2): 21 nM

ATATATATGGGAGGACGATGCGGGCACCTTTCTTACATCTTGGCTTCATTCTTGCACCATTGGCAGACGACGAGCGGGAAAAAAAA [TGF-beta1 pool 015 clone 83]
Kd ([15]; plateau 80%, rate 0.82): 4.3 nM

ATATATATGGGAGGACGATGCGGGCAGCAACCTACCTTACCTTCCCCTAGCCTACCTTATCCCCAGACGACGAGCGGGAAAAAAAA [TGF-beta1 pool 015 clone 82]
Kd ([15]; plateau 100%, rate 0.54): 7.1 nM

ATATATATGGGAGGACGATGCGGGCAGGACGGACAGCAAGGGGTGAGCACGAGCAGACGACGAGCGGGAAAAAAAA [Thrombin pool 5 clone 75]
Kd ([12]; plateau 62%): 110 nM

ATATATATGGGAGGACGATGCGGGCAGTAGGTTGGGTAGGGTGGTCTGCTCAGACGACGAGCGGGAAAAAAAA [Thrombin pool 5 clone 4]
Kd ([12]; plateau 25%, rate 0.4): 0.03 nM

ATATATATGGGAGGACGATGCGGGCCAATCTGTCTTCTTTCCATCCTTATGATCAGACGACGAGCGGGAAAAAAAA [hNE pool 2 clone 73]
Kd ([1]; apparent photocrosslink KD, plateau 32%, rate 0.28): 29 nM

ATATATATGGGAGGACGATGCGGGCCGACTCTGAGGAAAAGGTTTTATGTATGGCTACCCCTGCAGACGACGAGCGGGAAAAAAAA [Serum Amyloid P pool 051 clone 50]
Kd [16]: 0.54 nM

ATATATATGGGAGGACGATGCGGGCGGTTGGCGTGGTTGGAAATGTCCCGTCAGACGACGAGCGGGAAAAAAAA [Thrombin pool 5 clone 77]
Kd ([12]; plateau 9%, rate 0.64, Table 7 sequence differs from listing (GGTTGCTGTGG vs ggttggcgtgg)): 0.05 nM

ATATATATGGGAGGACGATGCGGGCGTCTGGGATTTGGACTTCTTCGCTAGCTCAGACGACGAGCGGGAAAAAAAA [Factor IX pool 87 clone 50]
Kd [17]: 6.2 nM

ATATATATGGGAGGACGATGCGGGCTGAAAGGAAACGGACGATTGAGCTTCCCCTTACCTCTCCAGACGACGAGCGGGAAAAAAAA [IL-7 pool 042 clone 5]
Kd [18]: 11 nM

— US20030054360
